Laboratory results published in patent US20230060388A1 (SHANGHAI HENLIUS BIOTECH, published 2023).
Where a chain is given by its changes, count along the chain named. Each block holds one binder with its values, some of them ahead of it.

Key:
[1] = target: T1, recombinant human TIGIT extracellular domain (ECD) (human, UniProt Q495A1 22-138); assay: ELISA, VHH supernatant on h-TIGIT ECD coated plates
T1 construct: also called h-TIGIT ECD; recombinant human TIGIT ECD
T1 sequence: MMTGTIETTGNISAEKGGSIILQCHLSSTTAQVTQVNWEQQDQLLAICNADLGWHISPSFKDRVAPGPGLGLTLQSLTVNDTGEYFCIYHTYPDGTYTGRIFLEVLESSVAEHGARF
Protocol: The VHH antibody genes were amplified by PCR under protocols know in the art, purified by DNA agarose gel, constructed into a phagemid vector pADL-23c (Antibody Design Labs) and transformed to TG1 electrocompetent cells (from Lucigen). Transformed TG1 cells were cultured in Y2T medium. […] Phages in supernatants of culture were harvested by centrifugation, and panning of binders to human-TIGIT (h-TIGIT) or cynomolgus-TIGIT (cyno-TIGIT) antigen was performed using streptavidin-coupled Dynabeads coated with biotinylated h-TIGIT or cyno-TIGIT ECD. After 3 rounds of panning, binders of h-TIGIT or cyno-TIGIT were eluted, which were used to infect SS320 cells. Colonies of SS320 cells were picked and cultured in Y2T medium, and IPTG was added for secretion of VHH antibodies. Supernatants with VHH antibodies were screened by ELISA assays using h-TIGIT ECD coated plates. Positive h-TIGIT binders were picked for sequencing. 29 clones with different sequences were selected. Binding ability of VHH antibodies on cyno-TIGIT was also examined by ELISA. The top 21 binders and their CDRs and VHs are shown in the Sequence Table (SEQ ID NOS: 1-84).

[2] = target: T1, recombinant human TIGIT extracellular …; assay: blocking ELISA, competitor PVR
Protocol: The effects of VHH antibody clones on blocking Poliovirus Receptor (PVR, a.k.a. CD155) binding to TIGIT were also determined using blocking ELISA assay.

[3] = target: T2, human TIGIT expressed on cells (stably transfected Jurkat cells) (human, UniProt Q495A1 22-244); assay: whole cell binding to h-TIGIT stable cells, EC50 plotted against the blocking ELISA IC50
T2 construct: Also used here for TIGIT on primary T cells in the MLR; also called h-TIGIT; T cell immunoreceptor with Ig and ITIM domains
T2 sequence: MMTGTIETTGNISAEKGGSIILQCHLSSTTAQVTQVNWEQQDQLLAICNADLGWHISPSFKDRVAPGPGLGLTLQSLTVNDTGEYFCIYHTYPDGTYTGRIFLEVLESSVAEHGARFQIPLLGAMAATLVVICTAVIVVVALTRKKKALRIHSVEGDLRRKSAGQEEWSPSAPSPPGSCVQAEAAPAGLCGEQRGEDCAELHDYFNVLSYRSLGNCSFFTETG

[4] = target: T1, recombinant human TIGIT extracellular …; assay: PVR blocking ELISA (blocked ligand: PVR), IC50 plotted against the whole cell binding EC50

binding result [1]: binds
B1: 4H6 VHH (VHH)
VHH: QVQLVESGGGLATAGASLILSCAASGTIFRLNRMGWFRQAPGKERERVAATIWSGRRTHYADSVKGRFTISTDNAKKTVYLRMSSLKPEDTAVYYCNYRRITPWEASGNYWGQGTQVTVSS
notes: VHH in E. coli supernatant

inhibition of PVR binding to h-TIGIT [2]: > 90%
B2: 13H11 VHH (VHH)
VHH: QVQLVESGGGLVQAGGSLRLSCAASGLTFSMYAMGWFRQGPGKERESVAAISSDGRFTYYAASVKGRFTISKDNAKSAAFLQMNSLKPEDTAVYYCAARDSGSGYYSRAQWYDYWGQGTQVTVSS
notes: VHH in E. coli supernatant

inhibition of PVR binding to h-TIGIT [2]: > 90%
B3: 2B7 VHH (VHH)
VHH: B2 VHH with S21A, L27R, M31S, A33P
notes: VHH in E. coli supernatant

inhibition of PVR binding to h-TIGIT [2]: > 90%
B4: 1G1 VHH (VHH)
VHH: B2 VHH with G16D, A23V, L27P, T28S, M31S, A33P, Q120L
notes: VHH in E. coli supernatant

binding result [1]: binds
B5: 4E5 VHH (VHH)
VHH: QVQLVDSGGGVVEVGASLTLSCETSGLTSSDIAVGWFRQGPGKERESVAAISSDGRFTYYAASVKGRFTISKDNAKSAAFLQMNSLKPEDTAVYYCAARDSGSGYYSRAQWYDYWGQGTQVTVSS
notes: VHH in E. coli supernatant

binding result [3]: binds
binding result [4]: binds
B6: 1A10 VHH (VHH)
VHH: QVQLVESGGGVVQPGRSLRLSCAASGNSFSSYPMGWFRQAPGKERESVAAISSDGRFSYYADSVKGRFTISRDNSKNTLYLQMNSLRAEDTAVYYCACRDSGSGYYSRAQWYDYWGQGTLVTVSS

binding result [3]: binds
binding result [4]: binds
B7: 5B5 VHH (VHH)
VHH: B6 VHH with N27P, G55T, S58T, C98A, Y114R

binding result [3]: binds
binding result [4]: binds
B8: 2D5 VHH (VHH)
VHH: B6 VHH with N27P, Y32S, S53W, S58T, C98A, D113V

binding result [3]: binds
binding result [4]: binds
B9: 1C7 VHH (VHH)
VHH: B6 VHH with N27P, D54R, S58T, C98A, D100G

binding result [3]: binds
binding result [4]: binds
B10: 1D11 VHH (VHH)
VHH: B6 VHH with N27P, Y32S, D54M, S58T, C98A

binding result [3]: binds
binding result [4]: binds
B11: 6B11 VHH (VHH)
VHH: B6 VHH with N27P, S30P, D54R, S58T, C98A, A109L

binding result [3]: binds
binding result [4]: binds
B12: 5G10 VHH (VHH)
VHH: B6 VHH with N27P, S28R, S58T, C98A, Y114G

binding result [3]: binds
binding result [4]: binds
B13: 2A6 VHH (VHH)
VHH: B6 VHH with N27P, S31L, G55R, S58T, C98A

binding result [3]: binds
binding result [4]: binds
B14: 7B11 VHH (VHH)
VHH: B6 VHH with N27P, S30L, S31I, S58W, C98A, A109V

binding result [3]: binds
binding result [4]: binds
B15: 2A5 VHH (VHH)
VHH: B6 VHH with N27P, D54V, S58T, C98A, A109W

binding result [3]: binds
binding result [4]: binds
B16: 6E9 VHH (VHH)
VHH: B6 VHH with N27P, F29R, R56K, S58T, C98A, Q110N

binding result [3]: binds
binding result [4]: binds
B17: 6D8 VHH (VHH)
VHH: B6 VHH with N27P, Y32K, I51R, S58T, C98A, Y105R

binding result [3]: binds
binding result [4]: binds
B18: 6D12 VHH (VHH)
VHH: B6 VHH with N27P, S31T, R56V, S58T, C98A, A109E

binding result [3]: binds
binding result [4]: binds
B19: 5E8 VHH (VHH)
VHH: B6 VHH with N27P, I51Q, S58T, C98A

binding result [3]: binds
binding result [4]: binds
B20: 2C5 VHH (VHH)
VHH: B6 VHH with N27P, S31T, D54Q, S58T, C98A

binding result [1]: binds
B21: 4B5 VHH (VHH)
VHH: QVKLEESGGRSVLAGGSLRLRCAGTPRTFSTFHIGWFRQAPGKEREFVAAFNWSGGRTYYADSVKGRFTISRNNGKNMVYLQMTSLTPEDTGLYYCAAARDRGLHDGTTSDSYLEGSHEYEYWGQGTQVTVSS
notes: VHH in E. coli supernatant

binding result [1]: binds
B22: 12H7 VHH (VHH)
VHH: QVQLVDSGGGLVQAGGSLRLSCKVSGNFLSVSDMSWYRQAPGMERDVVATVTEHGRTTYTDSVKGRFTISRDNAEHTTYLEMNNLKPEDTAVYFCKASDVFTDAGAHEAVLIRDYWGQGTQVTVSS
notes: VHH in E. coli supernatant

binding result [1]: binds
B23: 3H7 VHH (VHH)
VHH: QVKLEESGGGLVQAGGSLRLSCAASGSILSAGVMRWYRQAPGKQRELVASIALDGSTGYYIDSVKGRFTISRDNAKNIVYLDMRSLEPADTAVYLCNANIRTDMRSAPFDHWGHGTQVTVSS
notes: VHH in E. coli supernatant

binding result [1]: binds
B24: 4D11 VHH (VHH)
VHH: QVQLQESGGGLVQPGGSLRLSCAASGSISSINAMGWYRLAPGKHREFVADITNSGSTNYAASVKGRFNISRDNAKDTVYLQMNSLKFEDTAVYYCTARRSTWYISSGRGTQVTVSS
notes: VHH in E. coli supernatant

binding result [1]: binds
B25: 4C5 VHH (VHH)
VHH: QVQLVDSGGGLVQAGGSLRLSCAVSGRSVSTYFVGWFRQAPGKEREFVAAIDRGSTVTRYDDSVKGRFTISRDNAKDTVYLQMNSLKPEDTAVYYCAAKAITRNFIATNDYDYWGQGTQVTVSS
notes: VHH in E. coli supernatant

binding result [1]: binds
B26: 4A11 VHH (VHH)
VHH: QVKLEESGGGEAQPGGSLRLSCTASGRPFSNYTMGWFRRAPGKEREFVGLAWPSPSTYVVDSVKGRFTISRDNAKNTIYLQMNSLKPEDTAIYYCAADYKSLTQSWLNAALDYWGQGTQVTVSS
notes: VHH in E. coli supernatant

inhibition of PVR binding to h-TIGIT [2]: > 90%
B27: 3G7 VHH (VHH)
VHH: B26 VHH with K3Q, E5V, E11L, A12V, P14A, G16D, T23E, P28T, F29L, N31T
notes: VHH in E. coli supernatant

binding result [1]: binds
B28: 4C6 VHH (VHH)
VHH: QVQLVESGGGLVQAGGSLRLACAASGRTFSSYPMGWFRQGPGKERESVAAISSDGRFTYYAASVKGRFTISKDNAKSAAFLQMNSLKPEDTAVYRCAVDPTGWGTIEADFRSWGQGTQVTVSS
notes: VHH in E. coli supernatant

binding result [1]: binds
B29: 4H9 VHH (VHH)
VHH: QVQLVESGGGAVQAGGSLRLSCTASGPIARSRSTGMGWFRQGPGKERESVAAISSDGRFTYYAASVKGRFTISKDNAKSAAFLQMNSLKPEDTAVYYCAARDSGSGYYSRAQWYDYWGQGTQVTVSS
notes: VHH in E. coli supernatant
